Assay results as given in doi:10.1101/2023.02.09.527830.
Several values for one entry are separate records, joined by “and”; a condition that tells them apart may be missing. Identical values can stand only once.

Legend:
[1] = target: Lassa virus nucleoprotein (NP), AV strain (Lassa virus (AV strain)); assay: native MS
[2] = target: Lassa virus Z protein, AV strain (Lassa virus (AV strain)); assay: native MS
[3] = target: Lassa virus nucleoprotein (NP), AV strain (Lassa virus (AV strain)); assay: negative-stain electron microscopy
[4] = target: Lassa virus nucleoprotein (NP), AV strain (Lassa virus (AV strain)); assay: native MS; remark: listed apart in the source
[5] = target: Lassa virus nucleoprotein (NP), AV strain (Lassa virus (AV strain)); assay: SEC

| Substance | Kd [1] | stoichiometry N [1] | stoichiometry N [2] | stoichiometry N [3] | stoichiometry N [4] | stoichiometry N [5] |
| --- | --- | --- | --- | --- | --- | --- |
| Lassa virus Z protein, AV strain (natural protein) | 30 µM | < 3 | < 6 |  |  |  |
| Lassa virus nucleoprotein (NP), AV strain (natural protein) |  | 2 and 3 |  | 3 | 4 and 5 and 6 | 3 |
